# In publication PMC12658140 (2025):
# B1: 240-14 IgA 2F02 Fab (Fab, V domains shown)
# VH: EVQLLESGGGLVQPGGSLRLSCAASGFTFSTYAMSWVRQAPGKGLEWVSTISGSGGSTYDAESVKGRFTISRDNSKNTLYLQMNSLRAEDTAVYYCAKEGGDFWSGYYANWFDPWGQGTLVTVSS
# VL: QSALTQPRSVSGSPGQSVTISCTGTRSDVGGYNYVSWYQQHPGKAPKVIIYDVKKRPSGVPDRFSGSKSGNTASLTISGLQAEDEADYYCSAFAGSHTLFGGGTKVTVL
# How the values were obtained:
# Test in all cases: BLI
# [1] = biological target: H3 stem with T32HA2 (influenza A virus H3N2 …)
# [2] = biological target: H3 stem with I32HA2 (influenza A virus H3N2 …)
# [3] = biological target: H3 stem with R32HA2 (influenza A virus H3N2 …)
binder,measurement,setting,value
B1,Kd,[1],17 nM
same,Kd,[2],22 nM
same,Kd,[3],28 nM
